# From patent US20240043504A1 (published 2024)
# Target: SARS-COV-2 RBD extracellular domain expressed with a C-terminal mouse IgG2a (SARS-CoV-2)
# Test: SPR Biacore, mAb captured via anti-hFc, 25 C
Binder,Kd [nM],koff [s⁻¹],kon [M⁻¹ s⁻¹],t½ [h]
"mAb11004 (antibody, V domains shown) VH: QVQLVESGGGVVQPGRSLRLSCVASGFTFSIYGMDWVRQAPGKGLEWVAVISYDGSNKYYADSVKGRFTISRDNSKNTLYLQMNSLRPEDTAVYYCAKDREAAADAFDIWGQGTMVTVSS VL: DIQMTQSPSSVSASVGDRVTITCRASQGISSWLAWYQQKPGKAPKLLIYAASSLHSGVPSRFSGSGSGTDFTLTISSLQPEDFATYYCQQANSFRLTFGGGTKVEIKR",0.0921,6.4e-05,695000,3.01
"mAb10998 (antibody, V domains shown) VH: EVQLVESGGGLVHPGGSLRLSCAASGLTVSSNYMSWVRQAPGKGLEWVSVIYSGGSTYYADSVKGRFTISRHNSKNTLFLQMNSLRAEDTAVYYCARDRPITGTTLDVWGQGTTVTVSS VL: DIQMTQSPSSLFASVGDRVTITCRASQSISSYLNWYQQKPGKAPKLLIYAASSLQSGVPSRFSGSGSGTDFTLTISSLQPEDFAFYYCQQTYSTPPITFGQGTRLEIKR",2.44,0.00358,1.47e+06,0.0533
"mAb10989 (antibody, V domains shown) VH: QVQLVQSGAEVKKPGASVKVSCKASGYIFTGYYMHWVRQAPGQGLEWMGWINPNSGGANYAQKFQGRVTLTRDTSITTVYMELSRLRFDDTAVYYCARGSRYDWNQNNWFDPWGQGTLVTVSS VL: QSALTQPASVSGSPGQSITISCTGTSSDVGTYNYVSWYQQHPGKAPKLMIFDVSNRPSGVSDRFSGSKSGNTASLTISGLQAEDEADYYCSSFTTSSTVVFGGGTKLTVLG",0.00895,,,2
"mAb11010 (antibody, V domains shown) VH: QVQLVESGGGVVQPGRSLRLSCAASGFTFSSYGMHWVRQAPGKGLEWVAVISYDGSYKYYADSVKGRFTISRDNSKNTLYLQMNSLRAEDTAVYYCAIDGGTVTTIFDYWGQGTLVTVSS VL: not shown",0.0789,,,2.14
"mAb10984 (antibody, V domains shown) VH: EVQLVESGGGLVQPGGSLRLSCAASGLTVNRNYMSWVRQAPGKGLEWVSLIYSGGSTYYADSVKGRFTISRDNSKNTLYLQMNSLRLEDTAVYYCARGELGIPYGMDVWGQGTTVTVSS VL: QSVLTQPPSVSAAPGQKVTISCSGSSSNIGNNYVSWYQQLPGTAPKLLIYDNNKRPSGIPDRFSGSKSGTSATLGITGLQTGDEADYYCGTWDSSLSAGVFGGGTKLTVLG",0.0286,,,4.85
"mAb11002 (antibody, V domains shown) VH: EVQLVESGGGLVQPGGSLRLSCAASGFTVSSNYMSWVRQAPGKGLEWVSVIYSGGSTFYADSVKGRFTISRHNSKNTLYLQMNSLRAEDTAVYYCAREGYGMDVWGQGTTVTVSS VL: not shown",4.46,,,0.0783
"mAb11006 (antibody, V domains shown) VH: EVQLVESGGGLVQPGGSLRLSCAASGFIVSRNYMSWVRQAPGKGLEWVSVIYSGGSTFYADSVKGRFTISRHNSKNTLYLQMNSLKAEDTAVYYCARELRGYFDYWGQGTLVTVSS VL: DIQLTQSPSFLSASVGDRVTITCWASQGISSYLAWYQQKPGKAPKLLIYAASTLQSGVPSRFSGSGSGTEFTLTISSLQPEDFATYYCQLLNSYPYTFGQGTKLEIKR",0.158,,,3.69
"mAb11008 (antibody, V domains shown) VH: EVQLVESGGGLVQPGGSLRLSCAASGFTVSSNYMTWVRQAPGKGLEWVSVIYSGGSTFYADSVKGRFTISRHNSENTLYLQMNSLRAEDTAVYYCARDLAAAGTDYWGQGALVTVSS VL: DIQLTQSPSFLSASVGDRVTITCWASQGISSYLAWYQQKPGKAPKLLIYAASTLQSGVPSRFSGSGSGTEFTLTISSLQPDDFATYYCQHLNSYLYTFGQGTKLEIKR",0.492,0.000192,390000,1
"mAb10982 (antibody, V domains shown) VH: EVQLVESGGGLVQPGGSLRLSCAASGLTVSSNYMSWVRQAPGKGLEWVSVIYSGGTTYYADSVKGRFTISRHNSKNTLSLQMNSLRAEDTAVYYCARGEGANYYGMDVWGQGTTVTVSS VL: QSVLTQPPSVSGAPGQRVTISCTGSSSNIGTGYDVHWYQQLPGTAPKLLIYGNSNRPSGVPDRFSGSKSGTSASLAITGLQAEDEADYYCQSYDSSLSGYVVFGGGTKLTVLG",0.0886,8.06e-05,910000,2.39
"mAb10986 (antibody, V domains shown) VH: EVQLVESGGGLVQPGGSLRLSCAASEFTVSSNYMSWVRQAPGKGLEWVSVIYSGGSTFYADSVKGRFTISRDNSKNTLYLQMNSLRAEDTAVYYCARALPYGDLHFDYWGQGTLVTVSS VL: QSVLTQPPSVSGAPGQRVTISCTGSSSNIGTGYDVHWYQQLPGTAPKLLIYGNTNRPSGVPDRFSGSKSGTSASLAITGLQAEDEADYYCQSYDSSLSDSYVFGTGTKVTVLG",0.00888,,,8.02
"mAb10985 (antibody, V domains shown) VH: EVQLVESGGGLVQPGRSLRLSCAASGFTFDDYAMHWVRQAPGKGLEWVSGISWNRGSIGYADSVKGRFTISRDNAKNSLYLQMSSLRAEDTALYYCAKDGERWDSVVVPSARNGMDVWGQGTTVTVSS VL: QSVLTQPPSVSGAPGQRVTISCTGSSSNIGAGYDVHWYQQLPGTAPKLLIYGNSNRPSGVPDRFSGSKSGTSASLAITGLQAEDEADYYCQSYDSSLSGSYVFGTGTKVTVLG",0.0105,,,2.26

# Target: SARS-COV-2 RBD extracellular domain expressed with a C-terminal mouse IgG2a (SARS-COV-2 RBD-mFc) (SARS-CoV-2)
# Test: SPR, captured mAb, RBD-mFc in solution, 37 C
Binder,Kd [nM],t½ [h],koff [s⁻¹],kon [M⁻¹ s⁻¹]
"mAb10920 (antibody, V domains shown) VH: QVQLVESGGGVVQPGRSLRLSCAASGFTFSYYGMHWVRQAPGKGLEWVAVIWYDGSNKFYADSVKGRFTISRDNSKNTLYLQMNSLRAEDTAVYYCAAARPGYYYGMDVWGQGTTVTVSS VL: DIQMTQSPSSLSASVGDRVTITCRASQGISNYLAWFQQKPGKAPNSLIYAASSLQRGVPSKFSGSGSGTDFTLTISSLQPEDFATYYCQQYNSYPRTFGQGTKVEIKR",0.119,0.255,,
"mAb10913 (antibody, V domains shown) VH: EVQLVESGGGLVQPGGSLRLSCAASGFTFRNYEMNWVRQAPGKGLEWVSYITSSGSTMYYADSVKGRFTISRDNAKNSLYLQMNSLRAEDTAVYYCARDGFYYYYAMDVWGQGTTVTVSS VL: QSVLTQPPSVSAAPGQKVTISCSGSSSNIGNNYVSWYQQLPGTAPKLLIYDNNKRPSGIPDRFSGSKSGTSATLGITGLQTGDEADYYCGTWDSSLSVGRVFGTGTKVTVLG",0.274,0.112,0.00173,6.32e+06
"mAb10915 (antibody, V domains shown) VH: EVQLVESGGGLVQPGGSLRLSCAASGFTVSSNYMNWVRQAPGKGLEWVSVIYSGGSTFYADSVKGRFTISRHNSKNTLYLQMNSLRPEDTAVYYCARDLGGYFDYWGQGTLVTVSS VL: not shown",0.156,2.79,,
"mAb10914 (antibody, V domains shown) VH: EVQLVESGGGLVQPGGSLRLSCAASGLIVSRNYMIWVRQAPGKGLEWVSVIYSGGSTFYADSVKGRFTISRHNSKNTLYLQMNSLRAEDTAVYYCARDLGTGGMDVWGQGTTVTVSS VL: DIQLTQSPSFLSASVGDRVTITCWASQGISSYLAWYQQKPGKAPKLLIYAASTLQSGVPSRFSGSGSGTEFTLTISSLQPEDFATYYCQQLNSYPLTFGGGTKVEIKR",0.318,0.875,,
